Consider 1 molecule from publication PMC10973363, “Insights into the modulation of bacterial NADase activity by phage proteins” (Nature Communications, 2024).

In test [1] the target is T1, DSR2 K960A/D993A (Bacillus subtilis 29R, UniProt P0DXN8 1-1005, K960A | D993A).
T1 construct: DSR2 from Bacillus subtilis 29R, WP_029317421, with K960A and D993A; source: E. coli Rosetta (DE3), purified (Ni-NTA, TEV cleavage, anion exchange, gel filtration); not shown: His, N-terminal, cleaved; MBP, N-terminal, cleaved
T1 sequence (looked up): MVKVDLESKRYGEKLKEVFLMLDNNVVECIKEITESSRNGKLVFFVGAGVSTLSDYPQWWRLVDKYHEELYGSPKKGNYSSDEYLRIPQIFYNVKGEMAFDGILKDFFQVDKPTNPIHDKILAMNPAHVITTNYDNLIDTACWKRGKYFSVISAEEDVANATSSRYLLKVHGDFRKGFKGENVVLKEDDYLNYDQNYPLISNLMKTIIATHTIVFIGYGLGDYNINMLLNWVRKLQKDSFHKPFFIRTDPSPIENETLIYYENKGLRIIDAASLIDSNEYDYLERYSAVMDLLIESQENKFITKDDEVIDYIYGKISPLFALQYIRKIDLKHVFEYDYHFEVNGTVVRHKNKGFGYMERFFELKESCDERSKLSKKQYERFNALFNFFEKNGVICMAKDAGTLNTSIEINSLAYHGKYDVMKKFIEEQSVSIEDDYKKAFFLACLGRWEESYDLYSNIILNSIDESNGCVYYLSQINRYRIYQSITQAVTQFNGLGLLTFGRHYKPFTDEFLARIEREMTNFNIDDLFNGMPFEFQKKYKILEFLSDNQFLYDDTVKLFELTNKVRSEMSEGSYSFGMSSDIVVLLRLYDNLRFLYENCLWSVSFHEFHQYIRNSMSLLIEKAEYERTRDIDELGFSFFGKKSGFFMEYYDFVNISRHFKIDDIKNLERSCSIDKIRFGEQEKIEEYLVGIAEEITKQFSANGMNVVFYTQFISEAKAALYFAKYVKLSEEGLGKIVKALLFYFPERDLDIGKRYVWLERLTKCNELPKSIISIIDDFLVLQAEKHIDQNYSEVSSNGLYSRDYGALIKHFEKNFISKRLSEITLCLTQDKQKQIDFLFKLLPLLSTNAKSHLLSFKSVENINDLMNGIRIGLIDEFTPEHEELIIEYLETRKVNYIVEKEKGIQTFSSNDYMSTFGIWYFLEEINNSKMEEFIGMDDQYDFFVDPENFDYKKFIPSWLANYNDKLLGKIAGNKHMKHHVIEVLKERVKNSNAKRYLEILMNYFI
Kind of test: pull-down; N-terminal His-tagged TTP or DSAD1 on Ni-NTA agarose beads, excess untagged DSR2 variants added, 1 h at 4 °C, 25 mM Tris-HCl pH 7.5, 300 mM NaCl, washes with 10 mM imidazole, SDS-PAGE with Coomassie staining. Particulars: both partners purified.

Test [2] deals with T2, defense-associated sirtuin 2 (DSR2), full-length wild type (Bacillus subtilis 29R, UniProt P0DXN8 1-1005).
T2 construct: DSR2 from Bacillus subtilis 29R, WP_029317421; Cloned into the 2CT-10 vector (Addgene plasmid #55209) with His-MBP tag and TEV site; DSR2-TTP was cloned into a pET-derived vector with an N-terminal His tag; also called WT DSR2; full-length DSR2; source: E. coli Rosetta (DE3), purified (Ni-NTA, TEV cleavage, anion exchange, gel filtration); not shown: His, N-terminal, cleaved; MBP, N-terminal, …
T2 sequence (looked up): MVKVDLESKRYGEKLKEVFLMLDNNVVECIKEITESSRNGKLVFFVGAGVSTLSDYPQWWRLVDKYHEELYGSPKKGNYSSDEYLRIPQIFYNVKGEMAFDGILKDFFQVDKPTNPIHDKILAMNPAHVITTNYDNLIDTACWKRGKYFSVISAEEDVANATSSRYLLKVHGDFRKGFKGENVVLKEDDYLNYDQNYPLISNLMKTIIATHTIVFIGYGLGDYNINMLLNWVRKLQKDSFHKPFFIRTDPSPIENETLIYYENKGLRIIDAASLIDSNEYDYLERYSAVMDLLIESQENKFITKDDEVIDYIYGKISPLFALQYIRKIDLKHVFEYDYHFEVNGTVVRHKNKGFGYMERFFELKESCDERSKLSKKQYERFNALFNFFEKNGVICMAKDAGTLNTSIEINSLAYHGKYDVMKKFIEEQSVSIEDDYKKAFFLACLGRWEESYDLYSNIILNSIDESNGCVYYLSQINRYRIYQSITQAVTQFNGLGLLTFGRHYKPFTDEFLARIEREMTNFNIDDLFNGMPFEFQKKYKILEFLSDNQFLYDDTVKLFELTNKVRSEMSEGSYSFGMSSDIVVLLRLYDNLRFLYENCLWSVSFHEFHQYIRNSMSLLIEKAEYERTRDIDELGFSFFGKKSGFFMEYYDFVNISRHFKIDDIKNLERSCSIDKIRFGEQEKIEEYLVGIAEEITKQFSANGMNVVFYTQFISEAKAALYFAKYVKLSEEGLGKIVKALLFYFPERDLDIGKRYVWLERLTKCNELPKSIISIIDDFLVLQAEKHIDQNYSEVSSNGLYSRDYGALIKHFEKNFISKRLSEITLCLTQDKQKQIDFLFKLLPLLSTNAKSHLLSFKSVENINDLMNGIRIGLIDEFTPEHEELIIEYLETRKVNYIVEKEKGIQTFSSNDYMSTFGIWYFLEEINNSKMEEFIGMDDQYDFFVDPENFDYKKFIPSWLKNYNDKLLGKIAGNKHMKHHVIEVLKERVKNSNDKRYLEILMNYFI
Kind of test: AUC; sedimentation velocity, samples at 1 mg/mL in gel-filtration buffer (25 mM Tris-HCl pH 7.5, 150 mM NaCl, 2 mM DTT), SEDFIT and SEDPHAT. To be noted: both partners purified.

B1: DSR anti-defense 1 (DSAD1), His-tagged (natural protein)
chain: MIEIFKDTGATHDLVYHSKINTFVWDVEFDIVLSDSKELNKCYFVKCFNPYRINGKCDFAVSSIDIFSEGKRLLIENEFNFKITKAVHVATSKDVTEIVLHLSERISSPFPIVKEVVYLD
notes: phage-encoded DSAD1, WP_004399562; aa 1-9 not built in the cryo-EM model; Cloned into a pET-derived vector with an N-terminal His tag; also called anti-DSR2 protein; His-tagged DSAD1; source: E. coli Rosetta (DE3), purified (Ni-NTA, anion exchange, gel filtration); not shown: His, N-terminal, kept
B1: the binding result in test [1] and in test [2] was “binds” in each case.
